Assay results published in patent publication US20210145976A1 (ARO BIOTHERAPEUTICS, published 2021).

What was measured:
[1] = target: T1, recombinant biotinylated CD71 extracellular domain (Sino Biologics) with an N-terminal 6His tag (human, UniProt P02786 89-760, biotinylated (sites not given)); experiment: screening ELISA
T1 construct: extracellular domain; also called hCD71; huCD71

[2] = target: T1, recombinant biotinylated CD71 …; experiment: screening ELISA, ratio

T1 sequence (P02786 other isoform, or with tags, fused parts or gaps): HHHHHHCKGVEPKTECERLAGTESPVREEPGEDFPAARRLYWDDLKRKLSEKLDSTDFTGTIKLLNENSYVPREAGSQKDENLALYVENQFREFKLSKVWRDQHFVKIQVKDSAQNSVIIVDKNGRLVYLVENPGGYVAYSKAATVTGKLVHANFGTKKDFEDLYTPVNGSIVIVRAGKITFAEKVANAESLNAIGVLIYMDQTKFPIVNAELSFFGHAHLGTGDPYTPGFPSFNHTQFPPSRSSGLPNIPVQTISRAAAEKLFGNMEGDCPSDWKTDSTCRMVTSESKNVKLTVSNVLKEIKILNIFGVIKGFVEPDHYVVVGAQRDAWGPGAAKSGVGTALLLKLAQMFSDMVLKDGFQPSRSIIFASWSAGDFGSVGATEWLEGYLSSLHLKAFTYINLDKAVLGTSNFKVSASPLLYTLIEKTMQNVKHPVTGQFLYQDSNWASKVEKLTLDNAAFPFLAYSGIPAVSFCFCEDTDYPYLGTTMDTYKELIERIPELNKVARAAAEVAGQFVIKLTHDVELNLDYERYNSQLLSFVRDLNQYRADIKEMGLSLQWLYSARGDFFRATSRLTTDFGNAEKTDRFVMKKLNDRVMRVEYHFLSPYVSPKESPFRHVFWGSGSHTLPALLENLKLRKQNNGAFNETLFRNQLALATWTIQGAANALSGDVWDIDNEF

| Binder | hCD71 [1] | hCD71:HSA [2] |
| --- | --- | --- |
| SEQ ID NO 99 (designed binder, FN3 domain) MLPAPKNLVVSRVTEDSARLSWTAPDAAFDSFGIQYNEFVFRGEAIVLTVPGSERSYDLTGLKPGTEYFVPISGVKGGDDSRPLSAIFTT | 853000 | 105 |
| SEQ ID NO 107 (designed binder, FN3 domain) MLPAPKNLVVSRVTEDSARLSWTAPDAAFDSFFIQYTESHWVGEAIVLTVPGSERSYDLTGLKPGTEYAVPIEGVKGGDSSTPLSAIFTT | 420000 | 104 |
| SEQ ID NO 87 (designed binder, FN3 domain) MLPAPKNLVVSRVTEDSARLSWTAPDAAFDSFAIEYYEPVPAGEAIYLDVPGSERSYDLTGLKPGTEYDVTIYGVKGGYYSHPLFASFTT | 2.83e+06 | 2580 |
| SEQ ID NO 126 (designed binder, FN3 domain) MLPAPKNLVVSRVTEDSARLSWTAPDAAFDSFSIDYLELGESGEAIVLTVPGSERSYDLTGLKPGTEYWVYIFGVKGGYPSAPLSAIFTT | 4.49e+06 | 2570 |
| SEQ ID NO 111 (designed binder, FN3 domain) MLPAPKNLVVSRVTEDSARLSWTAPDAAFDSFWIYYYESVGTGEAIVLTVPGSERSYDLTGLKPGTEYFVDISGVKVGTYSLPLSAIFTT | 2.4e+06 | 322 |
| SEQ ID NO 127 (designed binder, FN3 domain) MLPAPKNLVVSRVTEDSARLSWTAPDAAFDSFPIPYGESPPSGEAIVLTVPGSERSYDLTGLKPGTEYVVIIRGVKGGGRSGPLSAISTT | 3.56e+06 | 38 |
| SEQ ID NO 106 (designed binder, FN3 domain) MLPAPKNLVVSRVTEDSARLSWTAPDAAFDSFTIAYEEHGLVGEAIYLRVPGSERSYDLTGLKPGTEYHVGIMGVKGGVFSSPLSAIFTT | 594000 | 495 |
| SEQ ID NO 109 (designed binder, FN3 domain) MLPAPKNLVVSRVTEDSARLSWTAPDAAFDSFHIAYEELVTEGEAIYLRVPGSERSYDLTGLKPGTEYLVDIEGVKGGHLSSPLSAIFTT | 4.83e+06 | 3860 |
| SEQ ID NO 162 (designed binder, FN3 domain) MLPAPKNLVVSRVTEDSARLSWTAPDAAFDSFHIAYEEATTYGEAIFLRVPGSERSYDLTGLKPGTEYDVWIEGVKGGTISGPLSAIFTT | 3.88e+06 | 2100 |
| SEQ ID NO 220 (designed binder, FN3 domain) MLPAPKNLVVSRVTEDSARLSWTAPDAAFDSFHIIYEEDGTEGEAIYLRVPGSERSYDLTGLKPGTEYEVDIEGVKGGVLSWPLFAEFTT | 4.25e+06 | 452 |
| SEQ ID NO 97 (designed binder, FN3 domain) MLPAPKNLVVSRVTEDSARLSWTAPDAAFDSFFISYFEGWASGEAIHLYVPGSERSYDLTGLKPGTEYSVHIQGVKGGQPSTPLSAIFTT | 2.41e+06 | 1090 |
| SEQ ID NO 81 (designed binder, FN3 domain) MLPAPKNLVVSRVTEDSARLSWTAPDAAFDSFVIEYREGAWYGEAIVLTVPGSERSYDLTGLKPGTEYAVYIPGVKGGPRSFPLSAIFTT | 537000 | 19 |
| SEQ ID NO 121 (designed binder, FN3 domain) MLPAPKNLVVSRVTEDSARLSWTAPDAAFDSFSIDYPEFPVRGEAIVLTVPGSERSYDLTGPKPGTEYNVTIQGVKGGFPSMPLSAIFTT | 2.37e+06 | 83 |
| SEQ ID NO 124 (designed binder, FN3 domain) MLPAPKNLVVSRVTEDSARLSWTAPDAAFDSFSIDYPEFPVRGEAIVLTVPGSERSYDLTGLKPGTEYAVTIWGVKGGFTSQPLSAIFTT | 605000 | 175 |
| SEQ ID NO 287 (designed binder, FN3 domain) MLPAPKNLVVSRVTEDSARLSWTAPDAAFDSFTIEYHESGPVGEAIVLTVPGSERSYDLTGLKPGTEYMVWIFGVKGGFVSRPLSAIFTT | 3.88e+06 | 706 |
| SEQ ID NO 289 (designed binder, FN3 domain) MLPAPKNLVVSRVTEDSARLSWTAPDAAFDSFAIPYYEDTNDGEAIVLTVPGSERSYDLTGLKPGTEYWVSIQGVKGGTVSGPLSAIFTT | 2.27e+06 | 1060 |
| SEQ ID NO 295 (designed binder, FN3 domain) MLPAPKNLVVSRVTEDSARLSWTAPDAAFDSFFIGYLEPIPSGEAIVLTVPGSERSYDLTGLKPGTEYPVVIQGVKGGHPSQPLSAIFTT | 3.38e+06 | 891 |
| SEQ ID NO 306 (designed binder, FN3 domain) MLPAPKNLVVSRVTEDSARLSWTAPDAAFDSFYIEYFETQGYGEAIVLTVPGSERSYDLTGLKPGTEYYVAIYGVKGGYLSRPLSAIFTT | 4.07e+06 | 1810 |

| Binder | hCD71 [1] | hCD71:HSA [2] |
| --- | --- | --- |
| SEQ ID NO 304 (designed binder, FN3 domain) MLPAPKNLVVSRVTEDSARLSWTAPDAAFDSFIITYWEHVGDGEAIVLTVPGSERSYDLTGLKPGTEYFVEIYGVKGGYLSKPLSAIFTT | 3.34e+06 | 1240 |
| SEQ ID NO 300 (designed binder, FN3 domain) MLPAPKNLVVSRVTEDSARLSWTAPDAAFDSFFIGYLEPQPPGEAIVLTVPGSERSYDLTGLKPGTEYNVTIHGVKGGTPSMPLSAIFTT | 2.31e+06 | 571 |
| SEQ ID NO 305 (designed binder, FN3 domain) MLPAPKNLVVSRVTEDSARLSWTAPDAAFDSFEIDYDEPFVYGEAIVLTVPGSERSYDLTGLKPGTEYRVFIFGVKGGNGSWPLSAIFTT | 1.21e+06 | 48 |
| SEQ ID NO 293 (designed binder, FN3 domain) MLPAPKNLVVSRVTEDSARLSWTAPDAAFDSFTIEYWEFTGSGEAIVLTVPGSERSYDLTGLKPGTEYDVSIYGVKGGWLSYPLSAIFTT | 3.59e+06 | 520 |
| SEQ ID NO 288 (designed binder, FN3 domain) MLPAPKNLVVSRVTEDSARLSWTAPDAAFDSFLIPYAETSPSGEAIVLTVPGSERSYDLTGLKPGTEYSVLIHGVKGGDYSSPLSAISTT | 659000 | 16 |
| SEQ ID NO 298 (designed binder, FN3 domain) MLPAPKNLVVSRVTEDSARLSWTAPDAAFDSFPIAYAEPRPDGEAIVLTVPGSERSYDLTGLKPGTEYSVLIHGVKGGLLSSPLSAISTT | 2.51e+06 | 74 |
| SEQ ID NO 119 (designed binder, FN3 domain) MLPAPKNLVVSRVTEDSARLSWTAPDAAFDSFHIEYEETPQKGEAIFLRVPGSERSYDLTGLKPGTEYVVNIRGVKGGDLSSPLGALFTT | 3.16e+06 | 1710 |
| SEQ ID NO 84 (designed binder, FN3 domain) MLPAPKNLVVSRVTEDSARLSWTAPDAAFDSFPIYYWEVFPAGEAIELDVPGSERSYDLTGLKPGTEYFVRIEGVKGGASSYPLRAEFTT | 1.73e+06 | 449 |
| SEQ ID NO 91 (designed binder, FN3 domain) MLPAPKNLVVSRVTEDSARLSWTAPDAAFDSFVIEYWERTQPGEAIVLTVPGSERSYDLTGLKPGTEYDVWISGVKGGKWSEPLSAIFTT | 1.44e+06 | 800 |
| SEQ ID NO 128 (designed binder, FN3 domain) MLPAPKNLVVSRVTEDSARLSWTAPDAAFDSFIINYIEIVQYGEAIVLTVPGSERSYDLTGLKPGTEYPESIWGVKGGGASSPLSAIFTT | 664000 | 204 |
| SEQ ID NO 89 (designed binder, FN3 domain) MLPAPKNLVVSRVTEDSARLSWTAPDAAFDSFHISYEETPVVGEAIYLRVPGSERSYDLTGLKPGTEYTVAIHGVKGGRESTPLIAPFTT | 3.44e+06 | 1720 |
| SEQ ID NO 120 (designed binder, FN3 domain) MLPAPKNLVVSRVTEDSARLSWTAPDAAFDSFRIEYIEWWVGGEAIVLTVPGSERSYDLTGLKPGTEYWVDIKGVKGGKRSYPLSAIFTT | 3.64e+06 | 1970 |
| SEQ ID NO 100 (designed binder, FN3 domain) MLPAPKNLVVSRVTEDSARLSWTAPDAAFDSFWIEYWEVVGFGEAIVLTVPGSERSYDLTGLKPGTEYWVGIYGVKGGNPSVPLSAIFTT | 2.95e+06 | 1260 |
| SEQ ID NO 103 (designed binder, FN3 domain) MLLAPKNLVVSRVTEDSARLSWTAPDAAFDSFAIEYFEYTGEGEAIVLTVPGSERSYDLTGLKPGTEYYVGIYGVKGGYLSRPLSAIFTT | 4.83e+06 | 4020 |
| SEQ ID NO 113 (designed binder, FN3 domain) MLPAPKNLVVSRVTEDSARLSWTAPDAAFDSFDIHYKEHSWWGEAIVLTVPGSERSYDLTGLKPGTEYIVPIPGVKGGGISRPLSAIFTT | 2.14e+06 | 95 |
| SEQ ID NO 94 (designed binder, FN3 domain) MLPAPKNLVVSRITEDSARLSWTAPDAAFDSFGIYYYEWWSTGEAIVLTVPGSERSYDLTGPKPGTEYYVKISGVKGGYRSYPLSAIFTT | 439000 | 44 |
| SEQ ID NO 102 (designed binder, FN3 domain) MLPAPKNLVVSRVTEDSARLSWTAPDAAFDSFSIDYDEPQPVGEAIVLTVPGSERSYDLTGLKPGTEYRVDIWGVKGGPTSGPLRATFTT | 3.48e+06 | 258 |
| SEQ ID NO 213 (designed binder, FN3 domain) MLPAPKNLVVSRVTEDSARLSWTAPDAAFDSFWIYYWEIERAGEAIRLDVPGSERSYDLTGLKPGTEYRVDIWGVKGGPTSGPLRATFTT | 2.11e+06 | 215 |
